The subject of data set [1] is macrophage activation syndrome (MAS) model in NOG-EXL mice (overexpress human IL-3 and GM-CSF). The experiment in a line: macrophage activation syndrome (MAS) model induced by CBMC transplantation in NOG-EXL mice. Format: in vivo. As for the experimental part: This study is performed to evaluate the in vivo efficacy of IMH001 (see sequences in Table 1), a GM-CSF neutralization antibody, on delaying the disease progression in a macrophage activation syndrome (MAS) model (induced by CBMC transplantation) in NOG-EXL mice. This lymphocyte-independent, effector-driven MAS mice model can be established by engrafting human umbilical cord blood (UCB) into NOG-EXL mice. NOG-EXL (NOD.Cg-Prkdc^scidIL2g^tm1SugTg (SV40/HTLV-IL3, CSF2) is a gene modified strain based on NOG (NOD.Cg-Prkdc^scidIL2^tm1Sug) mice, which is immunodeficient and overexpress human IL-3 and GM-CSF continuously, which can enrich the myeloid cell populations, including Dc, monocyte and macrophage, following human stem cell engraftment. A total of 46 NOG-EXL and 8 NOG mice were used in the study.
Five to six-week-old NOG-EXL mice were irradiated with 1 Gy before tail vein injection of OKT3-pretreated cord blood mononuclear cells (CBMC) reconstitution. The day of reconstruction was defined as Day 0. OKT3-pretreated CBMC engrafted NOG-EXL mice were treated with biweekly i.p. doses of PBS or 10 mg/kg IMH001 starting from week 1 of engraftment. Animal body weights, CBC counting, and serum ferritin were measured at indicated time points.
Four NOG mice (G1) and 14 NOG-EXL mice (6 mice for G2 and 8 mice for G3, respectively) were dosed one week after reconstruction (Day 7), twice a week for 15 weeks. The grouping and dosing regimens were as follows in Table 2:
Body weight: The body weight of mice was measured and recorded once a week after CBMC transplantation.
CBC counting: Whole blood was collected from mice and counted by a CBC machine at week 4, 8 and 16. And at the end of the study, i.e. week 16, total bone marrow viable cells were also counted. Before blood collection, mice were anesthetized with 3-4% isoflurane.
Ferritin, fibrinogen and triglycerides: Serum was collected from mice at week 8 and 16. Then measured separately using ELISA kits. Prior to blood collection, mice were anesthetized with 3-4% isoflurane.
Experimental endpoint collection: The endpoint is Day 112/Week 16. Spleens were collected and weighed from all mice of each groups; cell smears from bone marrow, sections of liver and spleen were collected for Wright Giemsa staining to detect the presence of hemophagocytosis. Activated lymphoid tissue, spleen/lymph nodes, liver, and meninges were collected for H&E section to detect inflammatory cell infiltration and depletion of lymphoid follicles in spleen/lymph nodes.
All data statistical analysis methods involved in this project needed to be consistent with the protocol, and the results were expressed as mean±SEM. Firstly, F-test (IDBS E-WorkBook 10.5.0 (64 bit) © TDBS) was used to analyze the homogeneity of variance. If the variance was homogeneity (p>0.05), one-way ANOVA was carried out. T-test was used for two groups comparation, and Dunnett's multiple comparison method was used for multiple groups comparation. If the variance was heterocedasticity (p≤0.05), Kruskal Wallis method was performed for nonparametric test, U-test was used for two groups comparation (Kruskal Wallis parameter test has significant difference, p≤0.05), and Dunn's multiple comparison method was used for multiple groups comparation (Kruskal Wallis parameter test has no significant difference, p>0.05). p<0.05 was considered as significant difference.

The format of data set [2] is physicochemical. As for the experimental part: Three different buffer systems, sodium acetate, histidine hydrochloride and sodium dihydrogen phosphate, were initially evaluated, at various different pH levels, for IMH001. […] The next step evaluated a number of excipients, including sucrose, trehalose, mannitol, proline, arginine hydrochloride, glycine, solidum chloride, PS20 and PS80. According to the changes in stability (CEX-HPLC) results at 50° C. for 1 week, comparison was carried out for the formulation with different excipients. […] It was unknown, however, whether the selected buffer and excipient would allow a protein solubility of IMH001 suitable for subcutaneous injection at a high concentration. The solubility and viscosity of the protein at concentrations of 100 mg/ml and 150 mg/ml in histidine hydrochloride buffer system (pH 5.8) were therefore assessed. […] PS80 (Polysorbate 80) was then tested for its ability to improve durability and stability of the candidate formulations, at different concentrations of sucrose for a protein concentration of 100 mg/ml.

Setting [3] is: serum, week 8 and 16, 10 mg/kg i.p. BIW.
Setting [4] is: 100 mg/ml and 150 mg/ml in 20 mmol/L histidine hydrochloride pH 5.8, 4° C. and 25° C. for 48 hours.

“Also recorded” adds a separate entry of the source.

B1: IMH001: humanized IgG1 anti-GM-CSF neutralization antibody with VH of SEQ ID NO:1 and VL of SEQ ID NO:2 (antibody, V domains shown)
VH: EVQLVQSGAEVKKPGASVKVSCKASGYTFTSHYLHWVRQAPGQGLEWMGWIFPGDDKTKYNEKFKGRVTMTSDTSISTAYMELSRLRSDDTAVYYCARGTKYLNWNFDVWGQGTTVTVSS
VL: DIQLTQSPSFLSASVGDRVTITCKANQNVGTTLAWYQQKPGKSPKALIYSASYRYSGVPDRFSGSGSGTDFTLTISSLQPEDFATYFCHQYTTYPLTFGGGTKVEIK
With B1, the body weight result in data set [1] (10 mg/kg i.p. BIW (G3) vs vehicle control group (G2), Day 63 to Day 112, p<0.05) is “significantly increased; also recorded: reduced weight loss”. In addition, in data set [1] (10 mg/kg i.p. BIW for 15 weeks), the “disease development / progression (overall)” value is reported as “completely reversed; also recorded: showed efficacy”. Besides, the NEUT percent result in data set [1] (10 mg/kg i.p. BIW vs untreated) is recorded as “recovery”. Also, in data set [1] (10 mg/kg i.p. BIW vs untreated NOG-EXL, in words), the “RBC number in peripheral blood (anemia)” value is listed as “effectively improve; also recorded: ameliorated anemia”. In data set [1] (10 mg/kg i.p. BIW vs untreated, Day 56), the HGB level entry is reported as “significantly higher; also recorded: increase”. In addition, the monocyte percent result in data set [1] (10 mg/kg i.p. BIW, considered pharmacological effect) is recorded as “decrease”. In data set [1] (day 112, 10 mg/kg i.p. BIW, vs NOG-EXL untreated 9.55, p=0.182), the “total bone marrow viable cells (mean value)” value is 11.6. For the same molecule, the RBC cell number in data set [1] (peripheral blood CBC, Day 56, 10 mg/kg i.p. BIW, vs untreated 6.45, p<0.001) is given as 8.17. In addition, in data set [1] (setting [3]), the Fibrinogen entry is listed as “No significant changes” and the Triglyceride result was “No significant changes”. The Ferritin level entry in data set [1] (serum, wk 8 and wk 16, 10 mg/kg i.p. BIW vs untreated) was “effectively control; also recorded: significantly reduce; also recorded: inhibited ferritin increase”. In data set [1] (wk 16, H&E, liver and meninx), the “inflammatory infiltration (histopathology)” value is recorded as “decreased; also recorded: improved significantly”. The “lymphocyte exhaustion (histopathology)” value in data set [1] (wk 16, H&E, spleen and lymph nodes) is given as “effectively reduce; also recorded: improved significantly”. Further, the “hemophagocytosis (histopathology)” value in data set [1] (wk 16, Wright Giemsa staining of bone marrow smears, liver and spleen sections) is listed as “effectively prevent; also recorded: improved significantly”. In addition, in data set [2], the “antibody stability in buffer systems” value was “stable”. In data set [2] (setting [4]), the “changes in appearance color, clarity, OD350, protein concentration and viscosity” value is on record as “no obvious changes”; the viscosity result is “lower than 10 cP”. Further, the “viscosity of samples with PS80 and different sucrose concentrations” value in data set [2] (protein concentration 100 mg/ml) is “acceptable”.

Source of the values: patent US20250340628A1, “COMPOSITIONS AND METHODS FOR TREATING MACROPHAGE ACTIVATION SYNDROME” (TJ Biopharma (Hangzhou) Co., Ltd., priority 2022, published 2025).
